This note sets out measurements from patent US7799901B2, “Modulators of the function of FAS receptors and other proteins” (Yeda Research and Development Co. Ltd., priority 1995, dated 2010).

One data set addresses T1, p55 TNF receptor (Homo sapiens, UniProt P19438).
T1 construct: human p55 TNF receptor (p55-IC residues 206-426); expressed in transfected cells; host or cells: SFY526 yeast
T1 sequence (P19438 235-455): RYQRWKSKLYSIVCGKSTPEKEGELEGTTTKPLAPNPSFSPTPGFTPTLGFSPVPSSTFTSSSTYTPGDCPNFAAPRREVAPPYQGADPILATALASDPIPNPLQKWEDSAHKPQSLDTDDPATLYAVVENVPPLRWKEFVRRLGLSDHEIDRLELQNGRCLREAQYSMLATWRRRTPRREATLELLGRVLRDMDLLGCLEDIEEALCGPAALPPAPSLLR
The data set can be described thus: Two-hybrid test of MORT-1 binding (FIG. 1), p55 TNF receptor. As to conditions: p55-IC residues 206-426, FIG. 1. An excerpt:
To isolate proteins interacting with the intracellular domain of the FAS-R, the yeast two-hybrid system was used (Fields and Song, 1989). […] In this system, the genes for the candidate interacting proteins are cloned into separate expression vectors. In one expression vector, the sequence of the one candidate protein is cloned in phase with the sequence of the GAL4 DNA-binding domain to generate a hybrid protein with the GAL4 DNA-binding-domain, and in the other vector, the sequence of the second candidate protein is cloned in phase with the sequence of the GAL4 activation domain to generate a hybrid protein with the GAL4-activation domain. The two hybrid vectors are then co-transformed into a yeast host strain having a lacZ or HIS3 reporter gene under the control of upstream GAL4 binding sites. Only those transformed host cells (cotransformants) in which the two hybrid proteins are expressed and are capable of interacting with each other, will be capable of expressing the reporter gene. In the case of the lacZ reporter gene, host cells expressing this gene will become blue in color when X-gal is added to the cultures. […]
In FIG. 1, there is depicted the interaction of the proteins encoded by the Gal4 DNA binding domain and activation-domain constructs (pGBT9 and pGAD-GH) within transfected SFY526 yeasts as assessed by β-galactosidase expression filter assay. […]

Data set [1] deals with p55-R-induced cytotoxicity in 293-EBNA cells. The data set can be described thus: Death of 293-EBNA cells induced by over-expression of p55-R. Format: cell-based, human. The conditions noted are these: co-transfection. How it is done:
In brief, 293-EBNA cells, MCF7 human breast carcinoma cells and HeLa HtTA-1 cells were grown in Dulbecco's modified Eagle's minimal essential medium supplemented with 10% fetal calf serum, nonessential amino acids, 100 U/ml penicillin and 100 μg/ml streptomycin. Cell tissue culture dishes (5×10^5 293-EBNA cells, 3×10^5 s MCF7 cells or 3×10^5 HeLa cells in 6-cm dishes) were transiently transfected, using the calcium phosphate precipitation method, with the cDNAs of the indicated proteins together with the β-galactosidase expression vector. In the experiments presented in FIGS. 14A-D and 15, each dish was transfected with 3.5 μg of the indicated MACH construct and 1.5 μg of pSV-β-gal. In the experiments presented in FIGS. 16A-D and 17-19, each dish was transfected with 2.5 μg of the indicated MACH or MORT1 construct (or, as control, empty vector) and 1.5 μg of pSV-β-gal. The cells were rinsed 6 to 10 h after transfection. The 293-EBNA and MCF7 cells were incubated for a further 18 h without additional treatment. […] The extent of cell death at the end of the incubation periods was assessed by determination of β-galactosidase expression, as described by Kumar et al, 1994. […]
In particular, FIGS. 16A-D show morphology of 293-EBNA cells in which cell death was induced by transient expression of a chimera comprised of the extracellular domain of the p55-R (amino acids 1-168) fused to the transmembrane and intracellular domains of Fas/APO1 (amino acids 153-319) (p55-Fas chimera) (FIGS. 16A and 16B), or by expression of the p55-R (FIGS. 16C and 16D), and of cells that were protected from these cytotoxic effects by their simultaneous transfection with MACHα1 (C360S) (FIGS. 16B and 16D). […] FIG. 17 illustrates the quantification of death induced in 293-EBNA cells by their transfection with p55-Fas chimera or with p55-R, together with an empty vector, a MORT1 deletion mutant lacking the MACH-binding region (MORT1 (92-208)), or MACHα molecules containing a nonfunctional CED3/ICE region. […] Data are from at least two independent experiments and are expressed as in FIGS. 14A-F and 15.

B1: MORT-1: Mediator of Receptor-induced Toxicity; protein binding the intracellular domain of FAS-R, SEQ ID NO:2 (protein)
chain: VNQAPECRFGGGILGPLGKRRDLARASEPRTEGARRAGPQPRPLADPAMDPFLVLLHSVSSSLSSSELTELKFLCLGRVVKRKLERVQSGLDLFSMLLEQNDLEPGHTELLRELLASLRRHDLLRRVDDFEAGAAAGAAPGEEDLCAAFNVICDNVGKDWRRLARQLKVSDTKIDSIEDRYPRNLTERVRESLRIWKNTEKENATVAHLVGALRSCQMNLVADLVQEVQQARDLQNRSGAMSPMSWNSDASTSEAS
With B1, the “binding to p55 TNF receptor in two-hybrid test” value in the data set with p55 TNF receptor is listed as “not”.

B2: MACHα1 (C360S): MACHα1 mutant in which the catalytic cysteine Cys360 is replaced by Ser (protein)
chain: MDFSRNLYDIGEQLDSEDLASLKFLSLDYIPQRKQEPIKDALMLFQRLQEKRMLEESNLSFLKELLFRINRLDLLITYLNTRKEEMERELQTPGRAQISAYRVMLYQISEEVSRSELRSFKFLLQEEISKCKLDDDMNLLDIFIEMEKRVILGEGKLDILKRVCAQINKSLLKIINDYEEFSKERSSSLEGSPDEFSNGEELCGVMTISDSPREQDSESQTLDKVYQMKSKPRGYCLIINNHNFAKAREKVPKLHSIRDRNGTHLDAGALTTTFEELHFEIKPHDDCTVEQIYEILKIYQLMDHSNMDCFICCILSHGDKGIIYGTDGQEAPIYELTSQFTGLKCPSLAGKPKVFFIQASQGDNYQKGIPVETDSEEQPYLEMDLSSPQTRYIPDEADFLLGMATVNNCVSYRNPAEGTWYIQSLCQSLRERCPRGDDILTILTEVNYEVSNKDDKKNMGKQMPQPTFTLRKKLVFPSD
In the case of B2, the “protection against p55-R-induced cytotoxicity” value in data set [1] is “protected”.
